The record followed here is publication PMC5825162.

The target in assay [1] is KSHV gH/gL glycoprotein complex (gH-V5/gL-Flag), wild type (Kaposi's sarcoma-associated herpesvirus (KSHV)) (UniProt F5HAK9).
Assay [2] has as its target RRV gH/gL glycoprotein complex (gH-V5/gL-Flag), wild type (rhesus monkey rhadinovirus (RRV)).

Sequence of UniProt F5HAK9 (F5HAK9 whole entry, looked up, one chain of several): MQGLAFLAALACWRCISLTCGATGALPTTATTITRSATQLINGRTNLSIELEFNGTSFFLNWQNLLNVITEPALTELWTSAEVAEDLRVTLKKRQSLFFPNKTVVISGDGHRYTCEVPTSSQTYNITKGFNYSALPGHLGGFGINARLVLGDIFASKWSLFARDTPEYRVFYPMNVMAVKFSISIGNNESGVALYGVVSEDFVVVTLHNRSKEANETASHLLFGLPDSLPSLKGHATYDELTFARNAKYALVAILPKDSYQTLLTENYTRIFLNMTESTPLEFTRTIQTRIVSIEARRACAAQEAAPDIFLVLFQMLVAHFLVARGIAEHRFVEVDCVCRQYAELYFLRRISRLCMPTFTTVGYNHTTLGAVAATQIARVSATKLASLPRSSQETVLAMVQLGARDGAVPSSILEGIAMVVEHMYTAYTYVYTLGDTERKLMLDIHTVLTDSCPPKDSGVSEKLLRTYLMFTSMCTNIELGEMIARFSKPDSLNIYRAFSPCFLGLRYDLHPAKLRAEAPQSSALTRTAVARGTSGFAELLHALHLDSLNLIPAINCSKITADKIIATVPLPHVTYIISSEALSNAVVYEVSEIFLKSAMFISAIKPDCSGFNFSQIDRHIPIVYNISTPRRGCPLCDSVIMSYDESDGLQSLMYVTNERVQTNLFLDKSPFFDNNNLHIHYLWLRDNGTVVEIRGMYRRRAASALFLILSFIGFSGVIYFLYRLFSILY

Molecule “soluble EphA2-Fc fusion construct comprising amino acids 25–534 of human EphA2 (from UniProt P29317-1 25-534)” had an inhibition of KSHV wt infection of SLK cells (GFP, flow cytometry) after pre-incubation of the virus with soluble EphA2-Fc, dose series; gH/gL on virions in assay [1] of 90%.

B1: Recombinant, human, soluble EphB3-Fc (Fc fusion)
chain: GCRALEETLMDTKWVTSELAWTSHPESGWEEVSGYDEAMNPIRTYQVCNVRESSQNNWLRTGFIWRRDVQRVYVELKFTVRDCNSIPNIPGSCKETFNLFYYEADSDVASASSPFWMENPYVKVDTIAPDESFSRLDAGRVNTKVRSFGPLSKAGFYLAFQDQGACMSLISVRAFYKKCASTTAGFALFPETLTGAEPTSLVIAPGTCIPNAVEVSVPLKLYCNGDGEWMVPVGACTCATGHEPAAKESQCRPCPPGSYKAKQGEGPCLPCPPNSRTTSPAASICTCHNNFYRADSDSADSACTTVPSPPRGVISNVNETSLILEWSEPRDLGGRDDLLYNVICKKCHGAGGASACSRCDDNVEFVPRQLGLTERRVHISHLLAHTRYTFEVQAVNGVSGKSPLPPRYAAVNITTNQAAPSEVPTLRLHSSSGSSLTLSWAPPERPNGVILDYEMKYFEKSEGIASTVTSQMNSVQLDGLRPDARYVVQVRARTVAGYGQYSRPAEFETTSERGSGAQQLQEQLPL
In the case of B1, the inhibition of RRV 26–95 wt infection of SLK cells (YFP, flow cytometry) after pre-incubation of the virus with soluble EphB3-Fc, dose series; gH/gL on virions in assay [2] was 80%.
